Laboratory results reported in US20040013664A1.

Target: Fas receptor on human cells (Jurkat, HT-29) (human) (UniProt P25445)
Experiment: cell-based or functional assay

Chain of Fas receptor on human cells (Jurkat, HT-29) (human) (P25445 26-335): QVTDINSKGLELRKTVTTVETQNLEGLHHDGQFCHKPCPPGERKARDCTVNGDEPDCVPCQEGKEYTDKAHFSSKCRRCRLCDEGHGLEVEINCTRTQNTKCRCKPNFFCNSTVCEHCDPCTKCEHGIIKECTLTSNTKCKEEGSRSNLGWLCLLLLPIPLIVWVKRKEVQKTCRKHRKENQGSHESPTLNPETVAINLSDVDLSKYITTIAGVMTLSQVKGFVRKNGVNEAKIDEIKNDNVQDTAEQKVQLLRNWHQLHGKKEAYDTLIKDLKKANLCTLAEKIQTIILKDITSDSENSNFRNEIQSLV

sFas ligand (Alexis Corporation, FLAG epitope tag at its N-terminus) (from UniProt P48023 103-281)
% Cells undergoing apoptosis (Jurkat, annexin/propidium iodide FACS); FasL (20 ng): 8.87% | decrease in Jurkat cell viability (ALOMAR blue): 50%
